Reference: the Immune Epitope Database (IEDB)

Assays:
HLA-B*44:03 = assay: IEDB peptide-MHC binding, purified MHC/competitive/radioactivity; filed as Kd, often an IC50 or EC50 that approximates it; ≥ and ≤ were set here for values at or beyond the usual limits of such assays
HLA-B*40:01 = assay: as above
HLA-B*18:01 = assay: as above
HLA-B*44:02 = assay: as above
HLA-B*40:02 = assay: as above
HLA-B*45:01 = assay: as above
HLA-A*68:02 = assay: IEDB peptide-MHC binding, purified MHC/competitive/fluorescence; filed as Kd, often an IC50 or EC50 that approximates it; ≥ and ≤ were set here for values at or beyond the usual limits of such assays; settings: source organism: Burkholderia mallei NCTC 10229
HLA-A*02:17 = assay: IEDB peptide-MHC binding, purified MHC/competitive/radioactivity; filed as Kd, often an IC50 or EC50 that approximates it; ≥ and ≤ were set here for values at or beyond the usual limits of such assays; settings: source organism: Dengue virus 4 Philippines/H241/1956
HLA-A*02:01 = assay: as above; settings: source organism: Dengue virus 4 Philippines/H241/1956
[1] = source organism: SARS coronavirus Tor2
[2] = source organism: Mammarenavirus machupoense
[3] = source organism: Lymphocytic choriomeningitis virus (strain WE)
[4] = source organism: Lymphocytic choriomeningitis virus (strain Armstrong)
[5] = source organism: Mammarenavirus juninense

SEAFEYYHTL
Kd (HLA-B*44:03; [1]): 18.4 nM | Kd (HLA-B*40:01; [1]): 1.18 nM | Kd (HLA-B*18:01; [1]): 2140 nM | Kd (HLA-B*44:02; [1]): 10.5 nM | Kd (HLA-B*40:02; [1]): 6.54 nM | Kd (HLA-B*45:01; [1]): 60.4 nM

SETLLPLTQY
Kd (HLA-B*44:03; [1]): 33.2 nM | Kd (HLA-B*40:01; [1]): 13100 nM | Kd (HLA-B*18:01; [1]): 66.5 nM | Kd (HLA-B*44:02; [1]): 52.1 nM | Kd (HLA-B*40:02; [1]): 1880 nM | Kd (HLA-B*45:01; [1]): 1750 nM

EEVLDVCPL
Kd (HLA-B*44:03; [2]): 5440 nM | Kd (HLA-B*40:01; [2]): 70.2 nM | Kd (HLA-B*18:01; [2]): 368 nM | Kd (HLA-B*44:02; [2]): 13700 nM | Kd (HLA-B*40:02; [2]): 85.2 nM | Kd (HLA-B*45:01; [2]): 2480 nM

SFYYIWKSYV
Kd (HLA-B*44:03; [1]): 319 nM | Kd (HLA-B*40:01; [1]): 1150 nM | Kd (HLA-B*18:01; [1]): ≥ 70500 nM | Kd (HLA-B*44:02; [1]): 415 nM | Kd (HLA-B*40:02; [1]): 2320 nM | Kd (HLA-B*45:01; [1]): 1150 nM

LDVLCPSSL
Kd (HLA-B*44:03; [3]): ≥ 78100 nM | Kd (HLA-B*40:01; [3]): ≥ 23600 nM | Kd (HLA-B*18:01; [3]): ≥ 77500 nM | Kd (HLA-B*44:02; [3]): ≥ 22200 nM | Kd (HLA-B*40:02; [3]): 487 nM | Kd (HLA-B*45:01; [3]): ≥ 77700 nM

ELWDPSTEA
Kd (HLA-A*68:02): 78.1 nM

SEVGICLST
Kd (HLA-B*44:03; [1]): 20.4 nM | Kd (HLA-B*40:01; [1]): 241 nM | Kd (HLA-B*18:01; [1]): 4510 nM | Kd (HLA-B*44:02; [1]): 120 nM | Kd (HLA-B*40:02; [1]): 10.6 nM | Kd (HLA-B*45:01; [1]): 8.52 nM

REFVFKNKDG
Kd (HLA-B*44:03; [1]): 515 nM | Kd (HLA-B*40:01; [1]): 156 nM | Kd (HLA-B*18:01; [1]): ≥ 70500 nM | Kd (HLA-B*44:02; [1]): 11500 nM | Kd (HLA-B*40:02; [1]): 11500 nM | Kd (HLA-B*45:01; [1]): 5420 nM

REAVESCPL
Kd (HLA-B*44:03; [4]): 13200 nM | Kd (HLA-B*40:01; [4]): 11100 nM | Kd (HLA-B*18:01; [4]): 10300 nM | Kd (HLA-B*44:02; [4]): 5840 nM | Kd (HLA-B*40:02; [4]): 58.7 nM | Kd (HLA-B*45:01; [4]): ≥ 60800 nM

SDTQIPGVC
Kd (HLA-B*44:03; [5]): ≥ 78100 nM | Kd (HLA-B*40:01; [5]): ≥ 65600 nM | Kd (HLA-B*18:01; [5]): ≥ 77500 nM | Kd (HLA-B*44:02; [5]): ≥ 56200 nM | Kd (HLA-B*40:02; [5]): 12200 nM | Kd (HLA-B*45:01; [5]): ≥ 51000 nM

QEYADVFHLY
Kd (HLA-B*44:03; [1]): 6.61 nM | Kd (HLA-B*40:01; [1]): 553 nM | Kd (HLA-B*18:01; [1]): 147 nM | Kd (HLA-B*44:02; [1]): 11.9 nM | Kd (HLA-B*40:02; [1]): 110 nM | Kd (HLA-B*45:01; [1]): 608 nM

LMLVALLGA
Kd (HLA-A*02:17): 2920 nM | Kd (HLA-A*02:01): 10400 nM
